Experimental data reported in publication PMC10874388, “Cyclic peptides discriminate BCL-2 and its clinical mutants from BCL-XL by engaging a single-residue discrepancy” (Nature Communications, 2024).
Starred links: 1 amine or outer side, 2 acyl side, 3 side chain; linkers in the order of their positions; H or OH if unused. Positions of bridges follow the written chain, without caps; N, C: chain ends. Residues, ends and D or L forms follow the SMILES beside them. Primed or numbered codes have the meaning given here. No end group written: not given here. *: point of attachment. X1 = O=C(C[*:2])NCCNC(=O)c1ccc(C2=N[C@H](C(=O)[*:1])CS2)cc1; FITC = O=C1OC2(c3ccc(O)cc3Oc3cc(O)ccc32)c2ccc(NC(=S)*)cc21; cADT = 2-aryl-4,5-dihydrothiazole (ADT) linker; FITC′ = fluorescein isothiocyanate; ADT (ClAc-3) = not defined here

T1: BCL-w (residues 6-152) (human, UniProt Q92843 6-152, biotin (biotinylated for SPR; site not stated))
T1 construct: source: E. coli BL21 (DE3), purified (Ni-NTA, Superdex 75, RESOURCE Q, Superdex 200)
T1 sequence (looked up): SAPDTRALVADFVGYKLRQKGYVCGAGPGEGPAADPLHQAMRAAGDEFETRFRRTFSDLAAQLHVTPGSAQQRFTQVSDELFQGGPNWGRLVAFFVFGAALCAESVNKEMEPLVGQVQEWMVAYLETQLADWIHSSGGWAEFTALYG

T2: cp2-F (linker 1-11 via ADT (ClAc-3) (inferred); reading uncertain; also: modified by ClAc-3, printed as CPIRYEWDEFCG{K(FITC)})
T2 construct: also called cp2-FITC; source: synthetic peptide
T2 peptide: CPIRYEWDEFCGK(FITC′)

B1: cp3 (peptide)
peptide: CPIRYPWDVEC
modifications: linker 1-11 via cADT (inferred)
notes: cyclic peptide from the second phage library CPXRYXWDXXC screened against BCL-XL; they agree with P6, V9 and E10 named in the text
B2: cp2 (peptide)
peptide: CPIRYEWDEFC
modifications: linker 1-11 via cADT (inferred)
notes: cyclic peptide from the second phage library CPXRYXWDXXC screened against BCL-2; they agree with I3, E6, E9 and F10 named in the text
B3: chimeric human BCL-2 (residues 1-50 and 92-207, residues 35-50 replaced with residues 33-48 of BCL-XL) (domain or fragment, UniProt P10415 1-34, looked up)
chain: MAHAGRTGYDNREIVMKYIHYKLSQRGYEWDAGDNRTEAPEGTESEMETPVVHLTLRQAGDDFSRRYRRDFAEMSSQLHLTPFTARGRFATVVEELFRDGVNWGRIVAFFEFGGVMCVESVNREMSPLVDNIALWMTEYLNRHLHTWIQDNGGWDAFVELYGPSMR
modifications: biotin (biotinylated for SPR; site not stated)
notes: BCL-2, human, residues 1-34 of the chimera (internal loop 51-91 removed; residues 35-50 replaced with residues 33-48 of BCL-XL); BCL-XL, human, residues 33-48, in place of BCL-2 residues 35-50; BCL-2, human, residues 92-207; Biotinylated for SPR; used as such for crystals and fluorescence polarisation; also called BCL-2 WT; source: E. coli BL21 (DE3), purified (Ni-NTA, Superdex 75, RESOURCE Q, …)

What was measured:
Jurkat cells [1] = format: cell-based
Procedure: Supplementary Figure 10 Functional mechanism of CPs. a. IC50 values of venetoclax against A549, MGC-803 and PANC-1 cells, measured after 48 h treatment by a CellTiter-Glo assay and calculated using Prism 7.0 by a nonlinear-fit method. Data are presented as mean ± s.d.; n= 6 biological replicates. b. Western blot detecting the protein expression levels of BCL-2 and BCL-XL in A549, MGC-803, Daudi and Jurkat cells. c-d. Western blot detecting the protein expression levels of BCL-2 and BCL-XL in El4 cells (c) and RS4:11 cells (d). e. Western blot verifying the protein expression levels of exogenous BCL-2 in normal A549 cells (control) and those stably overexpressing BCL-2 WT or G101V mutant. f. qPCR results testing the overexpression of BCL-2 WT or G101V mutant in A549 stable cells. Data are presented as mean ± s.d.; n= 6 biological replicates; one-way ANOVA with Dunnett’s multiple comparisons test. g. Cell viability assay of Jurkat cells after 48 h treatment with DMSO, cp1-FITC, cp6-FITC, respectively. P1 represents the percentage of active cells. h. FITC signal tests after 48 h treatment with DMSO, cp1-FITC, cp6-FITC, respectively. P4 represents cells with the FITC signal. i-k. Structures of cp1-TAT, cp2-TAT and cp3-TAT. […]

Jurkat cells [2] = experiment: Cell viability assay (CellTiter-Glo), Jurkat; format: cell-based; conditions: Homo sapiens, 48 h treatment, CellTiter-Glo
Procedure: (§1) The cell lines Jurkat (TIB-152), El4 (TIB-39), Daudi (ccl-213), RS4:11 (crl-1873), A549 (ccl-185), HepG2 (hb-8065) and PANC-1 (crl-1469) were purchased from ATCC (American Type Culture Collection), and MGC-803 (C6582) was purchased from Beyotime (https://www.beyotime.com/product/C6582.htm). […] Daudi and RS4:11 cells were cultured in RPMI-1640 medium (HyClone, SH30809.01) and 10% FBS (Gibco, 10099-141), whereas HepG2, MGC-803 and PANC-1 cells were cultured in MDEM (HyClone, SH30243.01). Cells were maintained at 37 °C under a humidified, 5% (v/v) CO2-containing atmosphere.
(§2) Cell viability was measured using CellTiter-Glo® 2.0 Reagent (Promega, G9242). […] After different inhibitors were added into serum-free medium and cultured for 4 h (RS4:11 for 6 h), FBS were supplemented to 10% and then incubated totally for 24 h or 48 h. Finally, the IC50 values were calculated based on measurements using a microplate reader (Thermo, Varioskan LUX). Statistical analysis was performed using software GraphPad Prism 7.0.

Daudi cells = experiment: Cell viability assay (CellTiter-Glo), Daudi; format: cell-based; conditions: Homo sapiens, Daudi, 48 h, 48 h treatment, CellTiter-Glo
Procedure: as §1, §2

El4 cells = experiment: Cell viability assay (CellTiter-Glo), El4; format: cell-based; conditions: Mus musculus, 48 h treatment, NO = no inhibition detected
Procedure: as §1, §2

RS4:11 cells = experiment: Cell viability assay (CellTiter-Glo), RS4:11; format: cell-based; conditions: Homo sapiens, RS4-11; 48 h treatment, CellTiter-Glo; small-molecule inhibitors, cells marked (nM)
Summary of the method: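 Compounds added in serum-free medium for 4 h (RS4:11: 6 h), then FBS brought to 10% and incubation continued to 24 h or 48 h total at 37 °C, 5% CO2. Viability by CellTiter-Glo 2.0 luminescence; IC50 calculated.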

[3] = parameters: method as in PMID 23410971; conditions: attributed to binding to BCL-XL; cited from earlier work
BCL-2-D103Y = target: T3, BCL-2-D103Y (human, UniProt P10415 1-34; Q07817 33-48; P10415 92-207, D103Y, biotin (biotinylated for SPR; site not stated)); experiment: SPR; Biacore T200; biotinylated proteins immobilised on a CAP sensor chip; peptides flowed in multiple cycles (25-12800 nM, depending on the peptides) at 30 uL/min; 10 mM PBS, 50 uM EDTA, 0.05% Tween-20, 25 °C; affinity fitting, 1:1 binding model; conditions: both partners purified
T3 construct: BCL-2, human, residues 1-34 of the chimera, as m6; BCL-XL, human, residues 33-48, in place of BCL-2 residues 35-50; BCL-2, human, residues 92-207; Chimera m6 with the clinical mutation D103Y; source: E. coli BL21 (DE3), purified (Ni-NTA, Superdex 75, RESOURCE Q, Superdex 200)

BCL-2-F104L = target: T4, BCL-2-F104L (human, UniProt P10415 1-34; Q07817 33-48; P10415 92-207, F104L, biotin (biotinylated for SPR; site not stated)); experiment: as above; conditions: both partners purified
T4 construct: BCL-2, human, residues 1-34 of the chimera, as m6; BCL-XL, human, residues 33-48, in place of BCL-2 residues 35-50; BCL-2, human, residues 92-207; Chimera m6 with F104L, a drug-resistant mutation found in a mouse model (residue number of the human protein); also called BCL-2 F104L mutant; source: E. coli BL21 (DE3), purified (Ni-NTA, Superdex 75, RESOURCE Q, Superdex 200)

BCL-w (residues 6-152) = target: T1, BCL-w (residues 6-152); experiment: as above; conditions: both partners purified
[4] = target: B3; experiment: as above; conditions: both partners purified
[5] = target: T5, human BCL-XL (residues 1-210, with 27-81 and 210-233 removed) (human, UniProt Q07817-1 1-209, 27-81 removed, biotin (biotinylated for SPR; site not stated)); experiment: as above; conditions: both partners purified
T5 construct: BCL-XL, human; printed as residues 1-210, with 27-81 and 210-233 removed (so the last residue is 209 or 210); source: E. coli BL21 (DE3), purified (Ni-NTA, Superdex 75, RESOURCE Q, Superdex 200)

BCL-2-D111A = target: T6, BCL-2-D111A (human, UniProt P10415 1-34; Q07817 33-48; P10415 92-207, D111A, biotin (biotinylated for SPR; site not stated)); experiment: as above; conditions: both partners purified
T6 construct: BCL-2, human, residues 1-34 of the chimera, as m6; BCL-XL, human, residues 33-48, in place of BCL-2 residues 35-50; BCL-2, human, residues 92-207; Chimera m6 with the point mutation D111A made by mutagenic PCR; also called BCL-2 D111A mutant; source: E. coli BL21 (DE3), purified (Ni-NTA, Superdex 75, RESOURCE Q, Superdex 200)

BCL-2-G101V = target: T7, BCL-2-G101V (human, UniProt P10415 1-34; Q07817 33-48; P10415 92-207, G101V, biotin (biotinylated for SPR; site not stated)); experiment: as above; conditions: both partners purified
T7 construct: BCL-2, human, residues 1-34 of the chimera, as m6; BCL-XL, human, residues 33-48, in place of BCL-2 residues 35-50; BCL-2, human, residues 92-207; Chimera m6 with the venetoclax-resistant clinical mutation G101V; also called BCL-2 G101V mutant; source: E. coli BL21 (DE3), purified (Ni-NTA, Superdex 75, RESOURCE Q, Superdex 200)

cp2-F = target: T2, cp2-F; experiment: fluorescence polarisation; direct binding: 20 nM FITC-labelled peptide, protein 60-1000 nM, 1x PBS pH 7.4, room temperature, 10 min; conditions: both partners purified

T5 sequence (Q07817 other isoform, or with tags, fused parts or gaps 27-81 removed | 27-81 removed): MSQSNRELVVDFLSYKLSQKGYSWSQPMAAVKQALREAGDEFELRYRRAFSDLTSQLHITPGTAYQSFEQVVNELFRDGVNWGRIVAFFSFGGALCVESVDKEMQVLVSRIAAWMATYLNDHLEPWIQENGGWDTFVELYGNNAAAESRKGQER
T3 sequence (P10415 other isoform, or with tags, fused parts or gaps D103Y | D103Y | D103Y D103Y): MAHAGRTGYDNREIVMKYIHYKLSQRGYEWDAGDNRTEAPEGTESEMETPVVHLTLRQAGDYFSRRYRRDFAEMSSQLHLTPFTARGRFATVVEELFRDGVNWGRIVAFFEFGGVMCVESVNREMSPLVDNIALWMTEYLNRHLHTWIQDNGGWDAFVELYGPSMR
T7 sequence (P10415 other isoform, or with tags, fused parts or gaps G101V | G101V | G101V G101V): as the sequence (P10415 other isoform, or with tags, fused parts or gaps D103Y | D103Y | D103Y D103Y) above, with G60V, Y62D counted along it
T6 sequence (P10415 other isoform, or with tags, fused parts or gaps D111A | D111A | D111A D111A): as the sequence (P10415 other isoform, or with tags, fused parts or gaps D103Y | D103Y | D103Y D103Y) above, with Y62D, D70A counted along it

## cp6-FITC: FITC-labeled cp6; CPARYFWDYKCGK(FITC) (CPARYFWDYKCGK(FITC′); not fully specified (bridges); printed as CPARYFWDYKCGK(FITC); cysteine pairing not given here)
Jurkat cells [1]
  Penetration efficiency (FITC signal in cells): relatively low penetration efficiency

## C[C@@H]1NC(=O)[C@@H]2CCCN2C(=O)[C@@H]2CSC(=N2)c2ccc(cc2)C(=O)NCCNC(=O)CSC[C@@H](C(=O)NCC(=O)N[C@@H](CCCCNC(=S)Nc2ccc3c(c2)C(=O)OC32c3ccc(O)cc3Oc3cc(O)ccc32)C(N)=O)NC(=O)[C@H](CCC(=O)O)NC(=O)[C@H](Cc2ccc(O)cc2)NC(=O)[C@H](CC(=O)O)NC(=O)[C@H](Cc2c[nH]c3ccccc23)NC(=O)CNC(=O)[C@H](Cc2ccc(O)cc2)NC(=O)[C@H](CCCNC(=N)N)NC1=O [cp1-FITC] (PARYGWDYECGK(FITC)-NH2; linker N-10 via X1)
Jurkat cells [1]
  Penetration efficiency (FITC signal in cells): relatively low penetration efficiency

## CC1(C)CCC(c2ccc(Cl)cc2)=C(CN2CCN(c3ccc(C(=O)NS(=O)(=O)c4ccc(N[C@H](CCN5CCOCC5)CSc5ccccc5)c(S(=O)(=O)C(F)(F)F)c4)cc3)CC2)C1 [ABT-263, navitoclax]
Jurkat cells [2]
  IC50: 8500 ± 500 nM
Daudi cells
  IC50: 13500 ± 1500 nM
El4 cells
  IC50: > 100000 nM
RS4:11 cells
  IC50: 0.4 ± 0.1 nM
[3]
  Thrombocytopenia: dose-dependent thrombocytopenia

## B1
BCL-2-D103Y
  Kd: 340 nM
BCL-2-F104L
  Kd: 710 nM
BCL-w (residues 6-152)
  Kd: 220 nM
[4]
  Kd: 240 nM
[5]
  Kd: 90 nM
BCL-2-D111A
  Kd: 90 nM
BCL-2-G101V
  Kd: 660 nM

## B2
BCL-2-D103Y
  Kd: 210 nM
BCL-2-F104L
  Kd: 260 nM
BCL-w (residues 6-152)
  Kd: 1450 nM
[4]
  Kd: 200 nM
[5]
  Kd: 730 nM
BCL-2-D111A
  Kd: 120 nM
BCL-2-G101V
  Kd: 300 nM

## B3
cp2-F
  binding result: binds
